# Test: soluble on expression in E. coli; label from the status in PepcDB or PDB records
row,Sequence,soluble on expression in E. coli
1,MGSDKIHHHHHHVTTQLKETPPSDTSSINLEAEFQASNIKEVLDKLDRELIGLKPVKTRIRETAALLLVDRVRKKLDLTAGAPSLHMSFTGNPGTGKTTVAQRMSEILHRLGYVREGHLVSVTRDDLVGQYIGHTAPKTKEVIKKAMGGVLFIDEAYYLYKPENERDYGAESIEILLQVMENNRDDLVVILAGYKDRMDKFFRSNPGMRSRIAHHIDFPDYSPDELVAIAKLMLAAQNYRLSAEAEKAFGEYIRLRMKMEHFANARSVRNALDRARLRQANRLFEGAKKNLSRTDLITIEAEDIRASRVFVEGAVDLDGDEGASRELSEESV,not soluble
2,MGSDKIHHHHHHMMEGKDDADLFADLGLSESIASIPSYTFIRDGLNRIFASSNNIWNVLIGTRLTPPKPLSDYDLVHIHNPVPLAGMVSVALHCRIKGIPYCVTTHGISKVPKIPEELGLSRGQRIVFNHGFLRAYKNVLSNATHLFALSEGDQDTITEWFSDQSVSVLPNGVDLNVSPEAPEVDTKVDLPDKPVLLFVGRIMASKGVDDLLEAFSLLEHDCKLIIVGPMRDEHFKDQIHTLSDDVEYRGYVEQAELDALYRRADLFVFPTRSDVFPLVTLEAMAAGTPVVSTTVGGLPEQIPDQVGRLVPPKEPKTFAAAVDGMLSNEQLRTEMGRAGKSLVEERYSWEAVAKAAVTEYYRIVN,not soluble
3,MGSDKIHHHHHHMYKVIIIDDEKAAIETLRRDLEVQTDLEIKGTAGNGAKGKKLIMDIHPDLLFLDIELPDIQGIRLLSEIREQVLWDMKVVFYTAYDKYLLQALRESAFDYLLKPYDIEELNLIIERYRKTMASARPLPSFASAVGTLMPGRDLFMISTVTGFRFLRLEEIGYFEYLKDKRLWQVELFNQTKLCLKKNTTAGDIIGYSDAFVQISQSAIININYLAMIKSKQCLLYPPFSDKEDLIISRGFLKELQERFCII,not soluble
4,MEKTYKLPIVLGTDPENTIRIDKLPPLKGAFAVHIHESETENNAHIKLEYGDTEYCLSLYVFNYPKFLRNETVRVRNYDLWPKWIMFAARLPNGKLHPKSGGKVYREDAVIVGEGNYELENPFISFKYSDGRILNFRIEFYRYLRYKSPKYGPSFRSEYWFIGVD,not soluble
5,MKSLQIYLFLFLSVFALGACIQNDIPYPYIKGEITAFEVEGQTGDAEINKNSRTIVVEVGDEVDIEELRITRFVVNEEATYSIDEQYCVSPNKFPSAGFSALADLPAGADTRVDFSKTVPVLLRTYQDYQWMITVKQTIERVVEVENQALPAIIDDKNHTVLVYVSQKQDLSAVKITKMILGGSKATITPDPSTVTNFRRPQEFVVNRFDKEELWTVDVVRTTSTGTTGSADVWATRATLNGGMKQGTTPRVEYRKKSEDTWTVVPETDVKLESGTTFSTTLTGLQDGTDYVWRVVVEEVPSTESGFTTEKIQEIPNLNFDTWSQNPTGTFKKSWYPNADGSNSFWATGNDGVTSSLAGSRDSSTRPEEKSVVNGKAAYMVTLGSVPLVGVAAGNLFIGDYKTNAQSPKDSPKFGRSFTGARPTGLKGWYKYTSKPVDYVGNPDNLKNDECHIYLRLWDDKDNEIGYGEFIGKETVTQYTQFRFDVTYTNKTAKPAKITIVATSSHYGGDFTGMKVTGSVGVGSELWVDEFELLYELEHHHHHH,soluble
6,MVTKEVGHDFLARLGKKRLRPGGVEATNWLIEQGQFSQDCHVLEVACNRCTTAIELAKTFGCQIDAVDLNPKVVKEAQERVAVEGLTRHITVSQASALSLPFPDNHFDIVINEAMLTMLNAQAKEKALNEYWRVLKPGGRLLTHDVAYEDPKTRQVLDELRQTIHVNVAPLSLTGWQALYQEHGFSQVTYHHGKMSLMTPRGMIKDEGLMNTLNIMRRGLKKENRQQFLKMRRFFTRTGKNLCYIAVKSVK,not soluble
7,MSLYRDSKRKIIRDLQKQDIQYVEYGDTRTLIIPTDKYFMFSSPRLNEICYPGLNNVIRLLNFYPQSTIYVAGFTDNVGSRSHKRKLSQAQAETMMTFLWANGIAAKRLKAEGYGDKNAISDNAIIHGSAQNRRIEIQWFTSPAQPPQPQMAYVKEGHHHHHH,soluble
8,MASTKDEVVRMSVDEYWEDIKDDYLIQLANTDPNEVYPSNNPGPTTADGQINFECHCVGHLVGSPCGFEFREAITCQKTNSDGEIEQGACGKELMSFMECVTRTQCFGTGDNDKK,not soluble
9,MAHHHHHHMNKDTICAWCFDVLKYELKNEKFDKVPPLIQSLHNDGFKIPFFVKWMKLNDVKDMGSYNYDAYELNGCIGCLGETDIMELRYYALESSLNDTRFYPITLKDFPFLIVTITYLFNFEKCAHVYDWVIGKHGIKISFVANKRRYSSTFLPEVASQHNFDHQTTVKKLIRKANYRGEINDELLENIEVERYEGVSCSLTHVDYERV,not soluble
10,SKLTRKMVLTRAKASELHSVRKLNCWGSRLTDISICQEMPSLEVITLSVNSISTLEPVSRCQRLSELYLRRNRIPSLAELFYLKGLPRLRVLWLAENPCCGTSPHRYRMTVLRTLPRLQKLDNQAVTEEELSRALSEGEEITAAPEREGTGHGGPKLCCTLSSLSSAAETGRDPLDSEEEATSGAQDERGLKPPSRGQFPSLSARDASSSHRGRNVLTAILLLLRELDAEGLEAVQQTVGSRLQALRGEEVQEHAE,soluble
11,MSLYLMPKQDEIALLKQEEETVKATLRIKANKVAVLPQIQAQLDELKERYDFLLRQLPVQKELASMLASVNQLGLDSSLTFTRIDWGERESQEFLYRLPLNIELTGSYHDIGDFSQAIAKLPRIINFDDVDWQRVSQESSTLHFRVRAYTYQFKQEVDDEKEGHHHHHH,not soluble
12,MGSDKIHHHHHHMSEPLRIIHGAFGRVALLLLDRTMAVHAHRVCHVVFKIGGVDILFGVRELEHYLSDDNVLLVNAWEPHFYNHNRDAPSTVLLALYLEPQWLRKVDTRFSCSAHPKFFSQPILALGSKLAGLRADLLDLLTGRESTGSRVVEDLIVRTIIELACVGTRWKELLECQLMGSLAYDARIRQSLDEMKSRGGVALDFDEIASSVGLSRPHFFHLFRKQIGMTPATFGSMLRMEASIDSLAATDTAIHDIARHLGFDSPGNFTRFFLCQQGVTPSQYRRKVEFTTLTCS,not soluble
13,MGSDKIHHHHHHMRRLPPLNALQIFETVARHRSFTRAADHLCLTQGAVSRQIIALEDYYKFPLFKRHAKGLTLTAEGELLLPAVKESFARIEEISLRLTRQRTDLALKVPTCVMRWMLPKIMRFQAEYPELHVQITTTWQHDVDFQLEPFDAAIIYGSSPGADVQAVPLFEERLTPVCAPDLLKDKPLAELADLARHTLLHPTRDHRDWKMWLARVTEMGAANAPVIDAEHGPSFDTLDMATNAALQGFGVAISDLALIDEDVAAKRLVRPFDTVLKTGWRYYFVYPDSVAHQQKLNLFRDWIAAHWEE,not soluble
14,MGSDKIHHHHHHENLYFQGMKTIVIEDKQRIESIILQADACFVGITDLEGNPYVVPMNFGYENDTLYLHSGPEGGKIEMLQRNNNVCITFSLGHKLVYQHKQVACSYSMRSESAMCRGKVEFIEDMEEKRHALDIIMRHYTKDQFSYSDPAVRNVKVWKVPVDQMTGKVFGLRADEKP,soluble
15,MKDPKAPIGVFDSGVGGLTVLKALRRLLPREEFLYFGDTARVPYGGKPLAMVRRFAWEIAGFLLRQGVKAIVVACNTASSAALPDLAEDLSVPVFGVVEPVARAVRGFRKVGLIGTQATVESGAYPRYVDLACAKACPLFVPLVEEGLWDDPVALLVARHYLEDAPKDLEALILGCTHYPFLKGAIGAVLPGVALLDSAELTAQEVARALEAEGLLNPEGRGRTFHLVTGDPEAYRALAERLGERVEAVRRVSLEEL,soluble
16,MSLTALYVQNKINGKIILPFSHSMTNVLRLNRSYGRTMLISNTYNQHFPQLTQEQLARNATKKVICGMSGGVDSSVSAFILQQQGYQVEGLFMKNWEEDDDTDYCTAAADLADAQAVCDKLGIKLHKINFAAEYWDNVFEHFLTEYKAGRTPNPDILCNKEIKFKAFLEYAAEDLGADYIATGHYVRRAGDNENAKLLRGLDPNKDQSYFLYTLSHKQVGQSLFPVGEIEKPIVRAIAEDLGLITAKKKDSTGICFIGERKFKDFLARYLPAQPGNIRTVDDEIIGRHDGLMYHTLGQRKGLGIGGLKNAGDEAWYVVDKDVENNELIVAQGHDHPRLFSKGLIASQLHWVDREPIRESLRCTVKTRYRQQDIPCVIEPIDDETIRVIFDEPQSAVTPGQSAVFYLGEVCLGGGIIAERIEGHHHHHH,soluble
17,MKLGILHFTDSHIKSATDWILSEFSSLVASVKTIYEECDRIYIVFTGDVVYSGSEEEYILASKFLNSIRSLLKTLYKDKVYEQIIFTPGNHDCNFNMDRQARKML,not soluble

# From the DeepSol protein solubility set
